Measured values from patent publication US20250250314.

Target: UCM12
Sequence (chain, as listed by the source, chain 1 of 3, other chains not shown): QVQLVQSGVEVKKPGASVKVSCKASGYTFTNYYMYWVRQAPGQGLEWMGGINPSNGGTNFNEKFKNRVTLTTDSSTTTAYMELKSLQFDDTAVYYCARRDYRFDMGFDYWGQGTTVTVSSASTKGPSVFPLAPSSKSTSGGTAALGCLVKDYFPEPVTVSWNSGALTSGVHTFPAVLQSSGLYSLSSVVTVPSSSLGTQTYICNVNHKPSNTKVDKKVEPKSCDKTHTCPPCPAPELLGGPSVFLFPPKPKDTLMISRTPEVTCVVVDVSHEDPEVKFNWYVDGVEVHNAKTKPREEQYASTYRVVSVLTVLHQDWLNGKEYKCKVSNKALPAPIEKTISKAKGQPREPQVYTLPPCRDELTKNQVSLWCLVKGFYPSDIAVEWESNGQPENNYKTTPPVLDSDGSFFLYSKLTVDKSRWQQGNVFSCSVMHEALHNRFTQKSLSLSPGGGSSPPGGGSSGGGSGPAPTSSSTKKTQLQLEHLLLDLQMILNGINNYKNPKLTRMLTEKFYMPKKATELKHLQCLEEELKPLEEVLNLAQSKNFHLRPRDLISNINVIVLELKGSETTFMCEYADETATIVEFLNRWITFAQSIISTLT
Sequence (chain, as listed by the source, chain 2 of 3, other chains not shown): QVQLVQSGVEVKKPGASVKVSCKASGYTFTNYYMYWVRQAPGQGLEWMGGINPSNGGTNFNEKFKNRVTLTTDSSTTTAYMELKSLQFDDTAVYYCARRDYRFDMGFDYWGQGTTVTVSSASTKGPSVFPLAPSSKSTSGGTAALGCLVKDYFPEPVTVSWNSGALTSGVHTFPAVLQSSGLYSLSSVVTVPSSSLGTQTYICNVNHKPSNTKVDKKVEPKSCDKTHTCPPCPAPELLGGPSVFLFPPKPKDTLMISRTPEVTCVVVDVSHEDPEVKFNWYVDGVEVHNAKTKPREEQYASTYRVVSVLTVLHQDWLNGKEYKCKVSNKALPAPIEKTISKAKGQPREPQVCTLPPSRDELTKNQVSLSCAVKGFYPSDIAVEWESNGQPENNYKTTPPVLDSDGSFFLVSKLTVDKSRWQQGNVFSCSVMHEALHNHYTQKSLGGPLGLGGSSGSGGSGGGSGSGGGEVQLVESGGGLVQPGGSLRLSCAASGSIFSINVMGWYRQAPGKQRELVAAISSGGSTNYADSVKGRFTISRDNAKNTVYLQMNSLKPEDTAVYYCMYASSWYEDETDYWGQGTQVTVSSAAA

Protein	kcat/Km
Matrix Metalloproteinase 1 (protein) FVLTEGNPRWEQTHLTYRIENYTPDLPRADVDHAIEKAFQLWSNVTPLTFTKVSEGQADIMISFVRGDHRDNSPFDGPGGNLAHAFQPGPGIGGDAHFDEDERWTNNFREYNLHRVAAHELGHSLGLSHSTDIGALMYPSYTFSGDVQLAQDDIDGIQAIYGRSQNPVQPIGPQTPKACDSKLTFDAITTIRGEVMFFKDRFYMRTNPFYPEVELNFISVFWPQLPNGLEAAYEFADRDEVRFFKGNKYWAVQGQNVLHGYPKDIYSSFGFPRTVKHIDAALSEENTGKTYFFVANKYWRYDEYKRSMDPGYPKMIAHDFPGIGHKVDAVFMKDGFFYFFHGTRQYKFDPKTKRILTLQKANSWFNCRKN	230 M⁻¹ s⁻¹
MMP2 (protein) YNFFPRKPKWDKNQITYRIIGYTPDLDPETVDDAFARAFQVWSDVTPLRFSRIHDGEADIMINFGRWEHGDGYPFDGKDGLLAHAFAPGTGVGGDSHFDDDELWTLGEGQVVRVKYGNADGEYCKFPFLFNGKEYNSCTDTGRSDGFLWCSTTYNFEKDGKYGFCPHEALFTMGGNAEGQPCKFPFRFQGTSYDSCTTEGRTDGYRWCGTTEDYDRDKKYGFCPETAMSTVGGNSEGAPCVFPFTFLGNKYESCTSAGRSDGKMWCATTANYDDDRKWGFCPDQGYSLFLVAAHEFGHAMGLEHSQDPGALMAPIYTYTKNFRLSQDDIKGIQELYGASPDIDLGTGPTPTLGPVTPEICKQDIVFDGIAQIRGEIFFFKDRFIWRTVTPRDKPMGPLLVATFWPELPEKIDAVYEAPQEEKAVFFAGNEYWIYSASTLERGYPKPLTSLGLPPDVQRVDAAFNWSKNKKTYIFAGDKFWRYNEVKKKMDPGFPKLIADAWNAIPDNLDAVVDLQGGGHSYFFKGAYYLKLENQSLKSVKFGSIKSDWLGC	1900 M⁻¹ s⁻¹
